The results in this text go back to patent US20130071921A1 (Pfizer, published 2013).

In the assay the target is T1, recombinant human Dkk3 (R&D systems Cat No. 1118-DK/CF) (human, UniProt Q9UBP4 22-350).
T1 construct: Bought; also called hDkk-3
As to the kind of experiment: SPR BIAcore, huMabJC18 captured by goat Fab2 anti-human Fc. For orientation: SPR reads the build-up and loss of mass on a sensor chip optically.

T1 sequence (Q9UBP4 22-350 limits assumed): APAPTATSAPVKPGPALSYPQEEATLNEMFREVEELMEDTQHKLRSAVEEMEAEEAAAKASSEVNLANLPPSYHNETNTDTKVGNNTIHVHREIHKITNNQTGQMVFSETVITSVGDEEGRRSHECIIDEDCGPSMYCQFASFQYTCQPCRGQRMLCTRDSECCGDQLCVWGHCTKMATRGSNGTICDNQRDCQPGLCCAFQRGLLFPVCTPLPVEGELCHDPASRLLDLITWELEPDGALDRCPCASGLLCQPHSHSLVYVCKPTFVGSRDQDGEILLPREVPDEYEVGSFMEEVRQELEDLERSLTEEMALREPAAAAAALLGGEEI

B1: huMabJC18, fully humanized anti-Dkk-1 monoclonal antibody (antibody, human IgG2, kappa, V domains shown)
VH: EVQLVESGGGLVQPGGSLRLSCAASGFTFSSYAISWVRQAPGKGLEWVASVSGTGLGFQTYYPDSVKGRFTISRDNAKNSLYLQMNSLRAEDTAVYYCATSLENYAFDYWGQGTTVTVSS
VL: EIVLTQSPATLSLSPGERATLSCRASESVDDFGISFINWYQQKPGQAPRLLIYAGSKQGSGIPARFSGSGSGTDFTLTISSLEPEDFAVYYCQQLKEVPPTFGGGTKVEIKR
notes: IgG2(delta a: A329S, P330S), kappa; also called huMabJC18 IgG
Regarding B1, the binding result is listed as “no binding”.
